Measured values published in PMC9728385.

Target: TtCST WT (Ctc1-Stn1-Ten1, co-expressed with p50) (Tetrahymena, UniProt A0PGB2;Q6JXI5;D2CVN7;D2CVN8 1-622;1-373;1-164;1-422)
Assay: EMSA

TtCST WT (Ctc1-Stn1-Ten1, co-expressed with p50), sequence (A0PGB2 whole entry, chain 1 of 4): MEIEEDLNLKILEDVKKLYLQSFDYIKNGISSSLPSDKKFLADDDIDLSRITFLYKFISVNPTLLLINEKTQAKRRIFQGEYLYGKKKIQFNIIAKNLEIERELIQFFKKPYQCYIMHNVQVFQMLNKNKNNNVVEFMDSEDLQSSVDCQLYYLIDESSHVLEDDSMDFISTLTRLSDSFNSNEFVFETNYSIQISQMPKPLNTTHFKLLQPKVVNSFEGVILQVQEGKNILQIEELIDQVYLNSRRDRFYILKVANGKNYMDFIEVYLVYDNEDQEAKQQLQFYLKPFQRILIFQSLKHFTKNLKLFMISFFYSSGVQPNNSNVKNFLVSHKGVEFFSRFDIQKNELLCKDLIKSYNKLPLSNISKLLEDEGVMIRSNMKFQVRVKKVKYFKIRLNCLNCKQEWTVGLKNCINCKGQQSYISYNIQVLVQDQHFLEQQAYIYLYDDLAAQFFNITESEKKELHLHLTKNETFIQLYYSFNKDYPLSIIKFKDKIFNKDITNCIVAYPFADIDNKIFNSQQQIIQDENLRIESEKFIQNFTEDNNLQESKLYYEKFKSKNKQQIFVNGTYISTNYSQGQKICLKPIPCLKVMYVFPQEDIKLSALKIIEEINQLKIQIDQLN
TtCST WT (Ctc1-Stn1-Ten1, co-expressed with p50), sequence (Q6JXI5 whole entry, chain 2 of 4): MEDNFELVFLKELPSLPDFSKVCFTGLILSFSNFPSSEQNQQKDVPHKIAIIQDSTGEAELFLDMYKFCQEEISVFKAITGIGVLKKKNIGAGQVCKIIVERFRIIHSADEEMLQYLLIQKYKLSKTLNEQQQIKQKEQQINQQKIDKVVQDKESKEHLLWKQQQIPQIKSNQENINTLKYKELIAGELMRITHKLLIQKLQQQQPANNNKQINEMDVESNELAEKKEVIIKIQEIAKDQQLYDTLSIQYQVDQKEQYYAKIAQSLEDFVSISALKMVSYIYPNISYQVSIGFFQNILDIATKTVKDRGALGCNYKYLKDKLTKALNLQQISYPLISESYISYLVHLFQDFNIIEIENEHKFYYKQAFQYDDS
TtCST WT (Ctc1-Stn1-Ten1, co-expressed with p50), sequence (D2CVN7 whole entry, chain 3 of 4): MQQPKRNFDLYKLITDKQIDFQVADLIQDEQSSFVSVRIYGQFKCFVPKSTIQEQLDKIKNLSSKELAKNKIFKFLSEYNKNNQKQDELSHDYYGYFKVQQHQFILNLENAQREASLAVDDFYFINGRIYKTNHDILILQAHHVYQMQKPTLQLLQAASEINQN
TtCST WT (Ctc1-Stn1-Ten1, co-expressed with p50), sequence (D2CVN8 whole entry, chain 4 of 4): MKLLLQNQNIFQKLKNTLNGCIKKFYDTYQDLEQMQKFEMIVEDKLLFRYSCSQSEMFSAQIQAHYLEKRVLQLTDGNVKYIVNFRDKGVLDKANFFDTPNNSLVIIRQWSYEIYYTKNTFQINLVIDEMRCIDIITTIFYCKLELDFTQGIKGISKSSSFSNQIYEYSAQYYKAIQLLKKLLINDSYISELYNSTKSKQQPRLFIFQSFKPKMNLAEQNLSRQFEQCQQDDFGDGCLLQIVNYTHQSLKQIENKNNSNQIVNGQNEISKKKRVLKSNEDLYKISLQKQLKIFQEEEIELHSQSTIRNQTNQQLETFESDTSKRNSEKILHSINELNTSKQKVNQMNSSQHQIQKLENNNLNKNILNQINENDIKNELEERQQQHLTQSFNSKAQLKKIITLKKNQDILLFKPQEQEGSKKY

GTTGGGGTTGGGGTTGGGGTTGGGGTTGGG (ssDNA) [d(GTTGGG)5]
Kd: 180 nM
